Target: EYFP, free protein expressed in HeLa cells (Aequoria victoria)
Assay: FRET or BRET

Substance: ECFP, free protein expressed in HeLa cells
- cross-bleed corrected FRET normalized to fluorescence of donor: 6.2%

Source: article PMC2585067
